Experimental data as given in paper PMC3648886.

Key:
Assay in all cases: FRET or BRET
[1] = molecular target: Monocysteine-reactive type A CCK receptor construct T341C, derivatized with Alexa^546 at position 341 (UniProt P30551)
[2] = molecular target: Monocysteine-reactive type A CCK receptor construct N102C, derivatized with Alexa^546 at position 102 (UniProt P30551)
[3] = molecular target: Monocysteine-reactive type A CCK receptor construct C94, derivatized with Alexa^546 at position 94 (UniProt P30551)
[4] = molecular target: Monocysteine-reactive type A CCK receptor construct A204C, derivatized with Alexa^546 at position 204 (UniProt P30551)

Row | Substance | efficiency of energy transfer [1] | efficiency of energy transfer [2] | efficiency of energy transfer [3] | efficiency of energy transfer [4]
1 | Aladan^24-CCK (peptide) | 64% | 64% | 56% | 53%
2 | Aladan^29-CCK (peptide) | 67% | 66% | 55% | 54%
3 | Aladan^33-CCK (peptide) | 66% | 70% | 58% | 53%
